Experimental data published in a protein production outcome set (Wang et al. 2014).

Test: label from the status in PepcDB records
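Note: failed if final PepcDB status was selected cloned or expressed and not failed if soluble or beyond.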

Sequence | protein production
MAELNFKAIEEKWQKRWLEAKIFEPNIRDKPKEKKFYITVAFPYLSGHLHVGHARTYTIPDVIARFKRMQGYNVLFPMAWHITGSPIVGIAERIKNRDPKTIWIYRDVYKVPEEILWTFEDPINIVKYFMKAAKETFIRAGFSVDWSREFYTTSLFPPFSKFIEWQFWKLKEKGYIVKGAHRVRWDPVVGTPLGDHDLMEGEDVPILDYIIIKFELRENGEVIYLPAATLRPETVYGVTNMWVNPNATYVKAKVRRKDKEETWIVSKEAAYKLSFQDREIEVIEEFKGEKLIGKYVRNPVSGDEVIILPAEFVDPDNATGVVMSVPAHAPFDHVALEDLKRETEILEKYDIDPRIVENITYISLIKLEGYGDFPAVEEVNKLGIKSQKDKEKLEQATKTIYKAEYHKGIFKVPPYEGKPVQEVKEAIAKEMLEKGIAEIMYEFAEKNVISRFGNRAVIKIIHDQWFIDYGNPEWKEKARKALERMKILPETRRAQFEAIIDWLDKKACARKIGLGTPLPWDPEWVIESLSDSTIYMAYYTISRHINKLRQEGKLDPEKLTPEFFDYIFLEEFSEDKEKELEKKTGIPAEIIHEMKEEFEYWYPLDWRCSGKDLIPNHLTFFIFNHVAIFREEHWPKGIAVNGFGTLEGQKMSKSKGNVLNFIDAIEENGADVVRLYIMSLAEHDSDFDWRRKEVGKLRKQIERFYELISQFAEYEVKGNVELKDIDRWMLHRLNKAIKETTNALEEFRTRTAVQWAFYSIMNDLRWYLRRTEGRDDEAKRYVLRTLADVWVRLMAPFTPHICEELWEKLGGEGFVSLAKWPEPVEEWWNETIEAEEEFIRSVMEDIKEIIEVAKIENAKRAYIYTAEDWKWKVAEVVSEKRDFKSSMEELMKDSEIRKHGKEVAKIVQKLIKERTFDVKRINEEKALREAKEFMEKELGIEIIINPTEDKGGKKKQAMPLKPAIFIE | not failed
MAEQHGDSPVPVELSVVGGFLIAVIVGMLFPADAMTRWMFHPAVVAGCCWAGQLWYVGRKLSVPPAAGNPWRYIFGMANTVTLLRGGLYAVVAGFLVVPATTDLAWVPAACYGVGVVLDKLDGTVARTVGEQTQLGTRLDMAFDTFGFVVAPLVAVFWGQLPVLYLSLSAARYAYVGGIRWRRYRDRPVFERPDSNLGKYLAGVQMVFITAALVPVVPTELVFRLTPVVLAPSLAVFLRDFLVASGRLPREWFDRQR | failed
MAEQMRRVARLFGDWPETIIWTCLEGTMGDIYVDDSQSPQSALALYGRQSFFGFLAGQPHRDLLKICEGKNIILVPQNQAWSDLIEEVYGDGVRFFTRYATKKDTEFDLGHLQKLVDDLPESFDMKLIDRNLYETCLVEEWSRDLVGNYIDVEQFLDLGLGCVILHKGQVVSGASSYASYSAGIEIEVDTREDYRGLGLAKACAAQLILACLDRGLYPSWDAHTLTSLKLAEKLGYELDKAYQAYEWR | not failed
MAERRVALVMADNDYRLVRPLANPIHDGEAMEAALKKLGFEVILETNRDLRRMRRALDDFREDAKGADVALVYFSGHGVEISGDNRLLPVDADASSVDQLDKTSLPLEEVRDAVAATAKVGLIVLDACRSDPFSASSGDGRGATSLTKDVADKVKPGLGRVGRAENILFAFSAAPGETAADGTGENSPFTTALTKYLATDGLEIRSVLTLVQQEVYDLSRGKQLPYVESGLPKLFFAAAAKEQLPERERLLLAMADVTPEMRGEVEQIASDADMPLAPLYGALISSDASHLSADSLNARLREAADAFVKVRSEMKTLASDDPQVAELRRQAEEQLSLGAFDGARALLAKAADIDNVSRQALKVNFASRTLSEAATRFLSGGAARADLDYTTAIGDFETVLSLYGEAGQTSLSLEQADRQSRTLEELGILYTTVGNVEAAGRAFTALLTNLEQRSRQETDPSVKRDLAISHIKLANIKMVQGDLPTSLEHYEAARDMLQDLTASVPDEKSWLGDLAMANDKIGNVLATQGDVGAAAKAYQQSLSIKRKLVDAQPNSASLLRDLTITYDEIGDLARTAGQLDGAQTAFEESLRIRLVLAENKPDPERQRAVSVSHERIGDVLRERGDAAGALVAYSKSQAIAEELVRHDPNDTDLKRDLSISYAKIGNALNDQENWPAALASYQQALAVARELAADDPGNTDWQRDLSVCLEKVAGVLDAQGDIRSALQNYQDSLAIVDRLTKLDPGNSDWQRDLSITLSEIGMLETRQRHFEGSRKAFEASLGIRQKLAQSDPNNAIWQFDLVQAYINYAYVAKDPKAVLTKALNLTLDLDRTGRLAPRDKPTIKYLRGLLAKLNAGKK | failed
MAESTDQTEQLRELAEIGLEGYAPYLMNRIMGRYNANLRKEMTALGLSTAKMRALAILSAKDGLPIGTLGIFAVVEQSTLSRALDGLQADGLVRREVDSDDQRSSRVYLTPAGRAVYDRLWPHMRASHDRMFQGITPQERQAFLATLNKMLANIRVHEI | not failed
MAESTRIGQESRVTLHFALKLEDGNVVDSTFDKQPASFKVGDGNLLPGFEQALFGLKAGDKRTLSILPEQGFGQPNPQNVQIMPRDQFQDMELAEGLLVIFNDAAKTELPGVVKAFDEQQVTVDFNHPLAGKTLAFEVEIIDVQPA | failed
MAETIISLLSPTLDIKSPYYFNPDYLHQFNMHTNTAIDKLSEAKDNYAIWKLRFFDLLQFTNKTGFIDGTLPKPDPSSPYYEPWKQCNAIVLHWLSNTVTDTLQNHVLQAETVHKAWEDLRRIFVPCIDFKIYELRQRLATLRQGGDSVAEYFGKLSKAWLELKAYDPVQECKCGGCDCESEKRATEAREKEQRYAFLMGLNKEFDYVKMKVMHKKIPPSVYQAYEMVVYSEAMMKWKMGGRI | failed
MAEVKTRDEHDEEPPRFDAQAATIAPETILLHPGPAAIVALGGGEALCNALGEPLRPLFSPEAADSLLPEIRSALETGVPQQKVVDVGRDGLPAQFDLIILPTAEPGRVVVIGRDVTLERTLRKALTDSRQRYKDFVDLSIDFTWETGPDGRFVFVSPDGALGYAARDLVGALPWTLMDITDAQSGATVFNSPVRVKDVDIWVRRRDGTLACLKTSSMPVFDASGEWSGGRGVCHDITEQHDRDKALARALNRQRVVANVERTFRDEIDPSNMLNVAAEALARSVGGDGCLIYRAALDDGPDRPFLPRGRFGEGGDEKVVLTLEALGEGAHAQTTPDGKWTVLVAASRYRRQINGAVVLWRRIERGAWSEDDHLLIVDVANQIGSANEQIGQHDRIISMSRTDGLTGLLNRRAFFDDMDRRLKGPPGLVERRAGEEAARRSERPARSALLYIDLDNFKWVNDAHGHLRGDEALMTVRKILTDHTRATDIVARLGGDEFAIWLEGADAEAASAKAAEILAEDALLRPFDGSPDRPLSLSIGLAIHDPASGEGVEDLTARADMAMYAAKHGGKGRFSLSLPPPHTPT | failed
MAFDAARYVHRYYASLAPAPGNEYPRLRAWEYLWEYVWDPSRSWDDLTAPEQLDTTALHLGFYLANWGMFRGSSGLLQNSNLDLMKALARQLFSGAGPELFELSLVDFAGNGARLAHNRKLLETVLGSMDALSSRVSWTDTLKSKILLGVWGEFPALDRHYVAACRALYPRRGLTSVNGGTLTALHRLIGEERLSFPRLETARKGLLYPTGRLADMAFFQYGLENALEHHHHHH | not failed
MAFIESWAKRTWLVPPQMQLYVDYKIKVTEILTNYTSIEEIHSYSIDESFLDITESLNFFYPDIRNRYEQMNLITLDLQREILDKLGLYVTVGMGDNPLLAKLAMDNYAKHNQNMRALIRYLEHHHHHH | failed
MAFIIDLLLLCCSAFMSSCEVAYFSLKPIDLQNIRERNHSSDIALSNLLDNSNQLLATILIGNNVINVAIVILSNYAIEQTFVFSSPIIGFLIQTILLTTVLLLFGEILPKVYARKNPLQYSRFSAAAMSVIYKILSPFSKLLVKSTGIVTRGISKKKYDMSVDELSKAVALTTTEGEPEEKEMINEIIKFYNKTACEIMVPRIDIVDVDLSWPFRKMLDFVVSSGYSRLPVSEGSEDNIKGVIYIKDLIPHMDKGDEFDWHPLIRKAYFVPENKRIDDLLEEFRANKVHVSIVVDEFGGTCGLITMEDILEEIVGEITDEYDEEELPFKVLGDGSYLFEGKTSLSDVRHYLDLPENAFGELGDEVDTLSGLFLEIKQELPHVGDTAVYEPFRFQVTQMDKRRIIEIKIFPFERTWEVE | failed
MAFITGAARGQGRSHAVRLAAEGADIIACDICAPVSASVTYAPASPEDLDETARLVEDQGRKALTRVLDVRDDAALRELVADGMEQFGRLDVVVANAGVLSWGRVWELTDEQWDTVIGVNLTGTWRTLRATVPAMIEAGNGGSIVVVSSSAGLKATPGNGHYSASKHGLTALTNTLAIELGEYGIRVNSIHPYSVETPMIEPEAMMEIFARHPSFVHSFPPMPVQPNGFMTADEVADVVAWLAGDGSGTLTGTQIPVDKGALKY | failed
MAFLDKIKSAVIAEWHTHKILPSLTAAQAILESGWGKYAPHNALFGIKADSSWTGKSFNTKTQEEYQPGIVTDIVDRFRAYDSWEDSIADHGQFLVDNPRYKAVIGEADYKKACHAIKDAGYATASGYAELLIQLIEENNLQEWDAEAIKNKEEQMISSQCREVIEFFINLANAGVGVDKDSFAGWQCADVPCYAAKHWFGVDLWGNAIDLLDSAAAVGWEVHRMPTDANPRTGAFFVQSVPCHQFGHTGIVIEDSDGYTMRTVEQNIDGNPDALYVGAPARFNTRDFTGVLGWFYPPYQGDIVTQPVSTEPQNSDTIVETPKTGTFTLDVAEINIRRWPSLASEVVGSYKQGDTVSFDSEGYANGYYWISYVGGLGMRNYLAIGQTDKDGNRISIWGKLN | failed
MAFSDDLPPPPRVNDHVKTRRNRKRRTIKTKQLEELISTATRAAHVARDKGFYIVSPEAIQCVEILRHMRTLPLNARLITKTDGLRVLLFLSKNGNPKIRSESKAVIDHWKSILHTKVH | failed
MAFSGSQAPYLSPAVPFSGTIQGGLQDGLQITVNGTVLSSSGTRFAVNFQTGFSGNDIAFHFNPRFEDGGYVVCNTRQNGSWGPEERKTHMPFQKGMPFDLCFLVQSSDFKVMVNGILFVQYFHRVPFHRVDTISVNGSVQLSYISFQNPRTVPVQPAFSTVPFSQPVCFPPRPRGRRQKPPGVWPANPAPITQTVIHTVQSAPGQMFSTPAIPPMMYPHPAYPMPFITTILGGLYPSKSILLSGTVLPSAQRFHINLCSGNHIAFHLNPRFDENAVVRNTQIDNSWGSEERSLPRKMPFVRGQSFSVWILCEAHCLKVAVDGQHLFEYYHRLRNLPTINRLEVGGDIQLTHVQT | not failed
MAFSTDDTLWREFLQVWPLERLREMTLAEYTTAGDKDCFVYWLEFRLVDYGSIAGGSAFKFAIFSRKETGAREGDTSLAYDDRYGWYRRFGTSPEEAFQTIRGHVVAVAEAARDGRLDEIDNSPLGAAYRWKIAFHYQPLRNPSTPCVYVRKPLLHFLGLSAADTTTPQSELYQALARLRQADESIFVFSERLWKDWVADTPFVVKLSEGAIKHGYLPVNLISAPFPETMYGGKTPNEAADVAHFRTDTGLEFDTDLRVSSPGSARLRHRLGGYFEDIGAAAGDLITLTQDGDGTYLLSSKLAVHAIGPTASAATITARASVKEAAAVRPPLNQILFGPPGTGKTYEAIEKALEILDPSFLLQLGDDESNERRRALKRRYDELAKEGLVQFVTFHQSFSYENFVEGLSASSDPDTKQVRYEVEDGVFKELCESARTRLVRRSDDAPLELSGRRIWKLSLGDSITEGHIFEECMEKGLALMGFGNNADFSQCQSREDIQKMFAASGEPLSLGAYPITAIKTFVCQMKLGDLIVVSEGNLKFRAIGEITGDYQLLPRDSDTYSQARPVRWLRGYKPALPYGALMENRFSQMTVYELRAGSIDHDKFRELLKSECIATGADRPHVLIIDEINRGNVSRIFGELITLIEPSKRSGAAEALEVLLPYSKDPFSVPDNVYLIGTMNTADRSLAGLDIALRRRFDFVEMAPRPDKLTGVKVAEIDISAVLETMNRRIEVLLDREHRLGHAYFMSLENSNDLSRLSNIFRQQIIPLLQEYFFEDWQRIAWILNDHRKDERFRFIVPAPYSVDSLFGDTGQVAQDSKAWRMNEEAFHKPQSYLGIVGDGKV | failed
